Tests used:
wild-type MEFs = assay: Apoptosis assay in wild-type MEFs deprived of serum; format: cell-based, mouse
Description: Apoptosis assays. Wild-type MEFs infected with the indicated retroviruses for 36 hours were starved for serum for 24 hours. Viability was determined by trypan blue dye exclusion, and DNA fragmentation was monitored by a terminal deoxynuclectidyl transferase (FACS-TUNEL) assay and by measurement of subdiploid DNA content of propidium iodide-stained nuclei [Zindy et al., Genes Dev. 12:2424-2433 (1998)].
On the other hand, MEFs overexpressing c-Myc, E2F-1, or E1A are exquisitely sensitive to apoptosis. […] 12:2424-2433 (1998); De Stanchina et al., Genes Dev. 12:2434-2442 (1998)].

p19ARF = assay: Induction of endogenous p19ARF protein in retrovirus-infected MEFs; format: cell-based, mouse; conditions: early passage MEFs, retroviral infection
Description: Virus production and infection. Human kidney 293T cells were transfected with a helper ecotropic retrovirus plasmid defective in psi-2 packaging sequences, together with pSRα vectors containing murine DMP1, human c-Myc, human E2F-1, or human Ets1 cDNAs [Zindy, et al., Genes Dev. 12:2424-2433 (1998); Inoue and Sherr, J. Biol. Chem. 273:29188-29194 (1998)]. Viruses were harvested every 6 hours 24-72 hours after transfection, filtered and stored at 4° C. until used for infection [Zindy, et al., Genes Dev. 12:2424-2433 (1998)]. In order to construct a retroviral vector containing DMP1 linked to a mutated tamoxifen-responsive element of the estrogen receptor (DMP1-ER™), a 3′ 0.3 kb EcoNI DNA fragment of murine DMP1 cDNA was amplified by PCR using
RNA and protein expression. Quantitative RT-PCRs employed specific primers for murine ARF exon 1β (30 cycles) and for β-actin (20 cycles) used as a control [Zindy et al., Oncogene 15:203-211 (1997)]. […]
Based on the above observations, it was determined as to whether introduction of DMP1 would induce synthesis of the endogenous ARF protein in normal diploid fibroblast strains. […] Although the blot was normalized for protein input, the levels of p19^ARF induced by DMP1 were calculated to be 2-fold higher than those induced by Myc, because fewer cells were productively infected with the DMP1 virus in this experiment (see FIG. 15A).

D-type cyclins = molecular target: T1, D-type cyclins (Mus musculus, UniProt P25322); assay: In vitro binding of [35S]methionine-labeled D-type cyclins to GST fusion proteins; conditions: cyclin D1
T1 construct: made in house; host or cells: in vitro transcription (Stratagene) and translation (rabbit reticulocyte system, Promega)
Description: A BglII fragment encoding amino acids 176-761 of DMP1 (FIG. 1) is subcloned into the BamHI site of the pGEX-3X plasmid (Pharmacia, Uppsala Sweden), and overnight cultures of transformed bacteria are diluted 10-fold with fresh medium, cultured for 2-4 more hours at 37° C., and induced with 1 mM isopropyl-β-D-thiogalactopyranoside (IPTG) for 1 hour. Induced bacteria are lysed by sonication in phosphate-buffered saline (PBS) containing 1% Triton X-100, and recombinant glutathione-S-transferase (GST)-DMP1 protein is purified by absorption and elution from glutathione-Sepharose beads as described (35). […] After 2 hours at 4° C., the beads are collected by centrifugation, washed 4 times with IP Kinase buffer, and the bound proteins are denatured and analyzed by electrophoresis on 11% polyacrylamide gels containing sodium dodecyl sulfate (SDS) (1).
Because DMP1 interacted with cyclin D2 in yeast, the ability of a glutathione S-transferase (GST)-DMP1 fusion protein to bind D-type cyclins in vitro is examined. […] Bound cyclins recovered on washed glutathione-Sepharose beads are analyzed by electrophoresis on denaturing gels. […] GST-DMP1 is less efficient than GST-RB in binding cyclins D2 and D3 (˜4-fold less binding), and under these conditions, an interaction with D1 is not detected (lanes 3, 7, 11). […]

[1] = system: 281 bp ARF promoter fragment; assay: Transactivation of ARF promoter-luciferase reporter in NIH-3T3 cells; format: cell-based, mouse; conditions: NIH-3T3, 281 bp ARF promoter fragment-luciferase
Description: Transactivation assays. NIH-3T3 cells were transfected with 4 μg of pGL2-ARFpro BamHI or its DMP1 binding site mutant, with or without increasing amount of pFLEX-DMP1, pEVRFO-Ets1, pCMV-Ets2, pRcRSV-Elfl, pdEB-Fli1, p(IEB-EWS-Fli1 or pCMV-E2F-1 (89-437), and 4 μg β-actin SEAP control vectors [Inoue and Sherr, Mol. Cell. Biol. 18: 1590-1600 (1998); Inoue et al., J. Biol. Chem. 273:29188-29194 (1998); Davis and Roussel, Gene 171:265-269 (1996); Baily et al., Mol. Cell. Biol. 14:3230-3241 (1994)]. Transfections and normalization of luciferase levels with internal control SEAP levels were performed as described [Inoue and Sherr, Mol. Cell. Biol. 18:1590-1600 (1998)].
Similarly, DMP1 deletion mutants defective in transactivation [Inoue and Sherr, Mol. Cell. […] Mutation of the DMP1 binding site within the ARF promoter [changing CCCGGATGC, (SEQ ID NO:33) to CCCGTCGAC, (SEQ ID NO:42)] also completely abolished transactivation by wild-type DMP1 (FIG. 14C, mutant reporter). Therefore, sequences within the −189 to −181 ARF promoter segment were the only ones responsible for DMP1-mediated transactivation. Although Ets1 could bind to a 23 base pair oligonucleotide containing the DMP1 consensus site (FIG. 14B), several Ets proteins were unable to induce significant reporter gene expression from the more complex 281 base pair ARF promoter (FIG. 14C). […]

T1 sequence (P25322 whole entry, the tested form may be a part): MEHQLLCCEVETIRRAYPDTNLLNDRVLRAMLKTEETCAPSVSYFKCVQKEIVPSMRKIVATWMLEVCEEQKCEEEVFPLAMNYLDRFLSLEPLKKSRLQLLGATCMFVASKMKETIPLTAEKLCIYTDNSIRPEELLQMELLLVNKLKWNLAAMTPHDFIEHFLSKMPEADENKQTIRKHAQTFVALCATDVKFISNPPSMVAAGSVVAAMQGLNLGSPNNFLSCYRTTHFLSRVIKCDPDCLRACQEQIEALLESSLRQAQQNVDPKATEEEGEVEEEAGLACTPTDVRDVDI

B1: Myc: known rapid inducer of p19ARF protein expression used as positive control (protein, UniProt P01108 1-454, looked up)
Myc proto-oncogene protein: MDFLWALETPQTATTMPLNVNFTNRNYDLDYDSVQPYFICDEEENFYHQQQQSELQPPAPSEDIWKKFELLPTPPLSPSRRSGLCSPSYVAVATSFSPREDDDGGGGNFSTADQLEMMTELLGGDMVNQSFICDPDDETFIKNIIIQDCMWSGFSAAAKLVSEKLASYQAARKDSTSLSPARGHSVCSTSSLYLQDLTAAASECIDPSVVFPYPLNDSSSPKSCTSSDSTAFSPSSDSLLSSESSPRASPEPLVLHEETPPTTSSDSEEEQEDEEEIDVVSVEKRQTPAKRSESGSSPSRGHSKPPHSPLVLKRCHVSTHQHNYAAPPSTRKDYPAAKRAKLDSGRVLKQISNNRKCSSPRSSDTEENDKRRTHNVLERQRRNELKRSFFALRDQIPELENNEKAPKVVILKKATAYILSIQADEHKLTSEKDLLRKRREQLKHKLEQLRNSGA
apoptosis / cell death (wild-type MEFs): induced cell death | ARF protein synthesis (p19ARF): induced ARF protein synthesis

B2: GST-DMP1: GST fused to residues 176-761 of DMP1, bacterially synthesized (protein)
chain: GIKDATEIIFEMSKDERKDFYRTIAWGLNRPLFAVYRRVLRMYDDRNHVGKYTPEEIEKLKELRIKHGNDWATIGAALGRSASSVKDRCRLMKDTCNTGKWTEEEEKRLAEVVHELTSTEPGDIVTQGVSWAAVAERVGTRSEKQCRSKWLNYLNWKQSGGTEWTKEDEINLILRIAELDVADENDINWDLLAEGWSSVRSPQWLRSKWWTIKRQIANHKDVSFPVLIKGLKQLHENQKNNPVLLENKSGSGVPNSNCNSSVQHVQIRVARLEDNTAISPSPMAALQIPVQITHVSSTDSPAASADSETITLNSGTLQTFEILPSFPLQPTGTPGTYLLQTSSSQGLPLTLTTNPTLTLAAAAPASPEQIIVHALSPEHLLNTSDNVTVQCHTPRVIIQTVATEDITSSLSQEELTVDSDLHSSDFPEPPDALEADTFPDEIPRPKMTIQPSFNNAHVSKFSDQNSTELMNSVMVRTEEEIADTDLKQEEPPSDLASAYVTEDLESPTIVHQVHQTIDDETILIVPSPHGFIQASDVIDTESVLPLTTLTDPIFQHHQEASNIIGSSLGSPVSEDSKDVEDLVNCH
modifications: left off: a dimerising Fc or GST
notes: GST fused to residues 176-761 of DMP1, bacterially synthesized
interaction with D1 (D-type cyclins): not detected

B3: ARF: ARF tumor suppressor protein (protein)
chain: MGRRFLVTVRIQRAGRPLQERVFLVKFVRSRRPRTASCALAFVNMLLRLERILRRGPHRNPGPGDDDGQRSRSSSSAQLRCRFELRGPHYLLPPGARRSAGRLPGHAGGAARVRGSAGCARCLGSPAARLGPRAGTSRHRAIFAFRWVLFVFRWVVFVYRWERRPDRRA
apoptosis / cell death (wild-type MEFs): did not trigger apoptosis

B4: Fli1: Ets family member (protein, UniProt P26323 1-452, looked up)
Friend leukemia integration 1 …: MDGTIKEALSVVSDDQSLFDSAYGAAAHLPKADMTASGSPDYGQPHKINPLPPQQEWINQPVRVNVKREYDHMNGSRESPVDCSVSKCNKLVGGGEANPMNYNSYMDEKNGPPPPNMTTNERRVIVPADPTLWTQEHVRQWLEWAIKEYGLMEIDTSFFQNMDGKELCKMNKEDFLRATSAYNTEVLLSHLSYLRESSLLAYNTTSHTDQSSRLNVKEDPSYDSVRRGAWNNNMNSGLNKSPLLGGSQTMGKNTEQRPQPDPYQILGPTSSRLANPGSGQIQLWQFLLELLSDSANASCITWEGTNGEFKMTDPDEVARRWGERKSKPNMNYDKLSRALRYYYDKNIMTKVHGKRYAYKFDFHGIAQALQPHPTETSMYKYPSDISYMPSYHAHQQKVNFVPSHPSSMPVTSSSFFGAASQYWTSPTAGIYPNPSVPRHPNTHVPSHLGSYY
ARF promoter reporter gene expression [1]: minimal activity

Reference: patent US6673902B2, “Cyclin D binding factor, and uses thereof” (St. Jude Children's Research Hospital, priority 1996, dated 2004)
